Experiments:
Assay in all cases: cell-based or functional assay
[1] = target: T1, NLS-GFP-OsJAZ^33 (SV40; Oryza sativa)
T1 sequence: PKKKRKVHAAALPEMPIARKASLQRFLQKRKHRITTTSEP

[2] = target: T2, GFP-OsJAZ^23 (Oryza sativa)
T2 sequence: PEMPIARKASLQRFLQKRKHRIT

[3] = target: T3, GFP-AtJAZ^FL (Arabidopsis thaliana) (UniProt Q9LMA8)
T3 sequence: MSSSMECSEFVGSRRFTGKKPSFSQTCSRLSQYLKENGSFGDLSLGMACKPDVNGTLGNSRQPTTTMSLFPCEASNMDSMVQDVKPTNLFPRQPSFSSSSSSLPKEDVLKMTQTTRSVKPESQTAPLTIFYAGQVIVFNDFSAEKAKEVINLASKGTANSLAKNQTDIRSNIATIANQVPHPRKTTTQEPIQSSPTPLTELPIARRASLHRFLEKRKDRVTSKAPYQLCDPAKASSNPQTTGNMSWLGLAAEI

[4] = target: OsJAZ^33-p53 (Oryza sativa; human) (UniProt P04637)

B1: OsTIR1^F-box-OsCOI1B^LRR (receptor)
chain: MYPYDVPDYATYFPEEVVEHIFSFLPAQRDRNTVSLVCKVWYEIERLSRKHVTVPFCYAASPAHLLARFPRLESLAVKGKPRAAMYGLIPEDWGAYARPWVAELAAPLECLKALHLRRMVVTDDDLAALVRARGHMLQELKLDKCSGFSTDALRLVARSCRSLRTLFLEECSIADNGTEWLHDLAVNNPVLETLNFHMTELTVVPADLELLAKKCKSLISLKISDCDFSDLIGFFRMAASLQEFAGGAFIEQGELTKYGNVKFPSRLCSLGLTYMGTNEMPIIFPFSALLKKLDLQYTFLTTEDHCQLIAKCPNLLVLAVRNVIGDRGLGVVADTCKKLQRLRVERGDDDPGLQEEQGGVSQVGLTTVAVGCRELEYIAAYVSDITNGALESIGTFCKNLCDFRLVLLDREERITDLPLDNGVRALLRGCTKLRRFALYLRPGGLSDTGLGYIGQYSGIIQYMLLGNVGETDDGLIRFALGCENLRKLELRSCCFSEQALARAIRSMPSLRYVWVQGYKASKTGHDLMLMARPFWNIEFTPPSSENANRMREDGEPCVDSQAQILAYYSLAGKRSDCPRSVVPLYPA
[1]
  coronatine-induced GFP degradation, flow cytometry, HEK-293T, pJAZ version 7: > 95%
  coronatine-induced degradation, flow cytometry, several cell types carrying pJAZ and pRAIDRS: 90 to 99%
[2]
  coronatine-dependent GFP degradation, flow cytometry, HEK-293T, pJAZ version 6-Os23: 90%
[3]
  coronatine-induced GFP degradation, flow cytometry, HEK-293T, pJAZ version 6-AtFL: 95%
[4]
  coronatine-dependent degradation, western blot quantification, H9 hESCs, 50 µM coronatine 1 day: 90%
